According to PMC12710314:

Test system: T1, LigR (Novosphingobium aromaticivorans DSM 12444), ORF:c1f1f590
T1 sequence: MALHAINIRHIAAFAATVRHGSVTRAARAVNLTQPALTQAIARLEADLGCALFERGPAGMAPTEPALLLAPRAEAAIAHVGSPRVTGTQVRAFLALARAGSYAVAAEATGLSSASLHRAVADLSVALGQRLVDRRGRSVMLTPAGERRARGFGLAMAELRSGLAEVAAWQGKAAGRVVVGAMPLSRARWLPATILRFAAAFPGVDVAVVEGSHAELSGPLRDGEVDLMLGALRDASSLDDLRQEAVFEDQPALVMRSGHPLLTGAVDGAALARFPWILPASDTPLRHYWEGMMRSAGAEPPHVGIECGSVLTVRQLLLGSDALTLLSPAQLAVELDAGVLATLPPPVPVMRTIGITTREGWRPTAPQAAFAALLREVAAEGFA
Assay: EMSA
Conditions: EMSA: 20 nM DNA, 50 mM Tris-HCl, 20 mM HEPES, 1 mM EDTA, 1 mM DTT, 100 mM NaCl, 10% glycerol, pH not stated, room temperature 30 min, gel at 4 C; DNase I …

GCCTTCTGCTTCTCGCGCCACTCGTCGTGCGCCTTCGGCAGCACGGTGTAGTGACCGTGGCAGTCGATGATCATGGTCATGCGACTTCAGTCCTCTCAAGTTTGAACTCTATGGTCTTGCCCGCCTGCTCGCGCTGGCGCCTCACCGTCCCGCCGGTCATCACCGGCTCGACGCCCAGCGATTCCAGCGTCTTGGCTGAC (double strand) [ligJ upstream EMSA fragment]
binding: no binding

GGACGACGATACCCGACATTTCCGGCTCCCGATGAAAGATCTTCGCGCGTTCCATGGAACTGCGGACCGCAGGGAACCAATGCATTGTTTGCCCCGGCCCATAAGGAAATGCTAAGTGATCAGGCATGGCCCTGCACGCGATCAACATCAGGCACATCGCCGCCTTCGCCGCAACGGTGCGCCACGGCAGCGTGACGCGG (double strand) [ligK promoter EMSA fragment]
binding: binds

CAAAGGTCGACCCGGCCTCACCGAAGCCGATCAGGGCGATTGTGAACTCAGGAACGCTCTCCATGGCAGCGGTCCTGCGTCGGCCGCGCCAAAGGAACAAATGCAAACATCGCCCAAGGTATAAATTTATGCAAAGCCTTCTGCGGCCACTTCGCGCAGGAGGGCCGCGAAGGCCGCCTGCGGCGCGGTCGGCCGCCAAC (double strand) [SARO_RS14280 promoter EMSA fragment]
binding: binds

CGATCTGAAGTGCTCAACGTGCAAAGCCTGCACAAAATGACAGGTCGTGCCGGCATCTCAATCGCCTGTTGCTTCCCCTTCTGCTGATTGCTATAAATCATAACAGATTGGGAGAGAGTCATGCAGTTTGAACGCATCAATCCGATGACCGGCGCCGTCGCCTCGCAGGCAGAGGCCATGAAAGCGTCGGACATTCCTTC (double strand) [ligV upstream EMSA fragment]
binding: no binding

ATGCCCAGGCCGATGCCGCTGGCGCCGCCCGTCACGAAAGCCGTCTTGCCCGGCAGATTCTGCATCGATCCTCTCCTTTGGTGCCTTGCCGGCAGCCATCGACCGGCGCCGGGAATCATTTTTCGCCTTTTGTATTCACCAGCGAGGAATTGTATGCAAGACTAACAATATTGCTGCTTCGACAAGGCCCGCCGAAATGGGTCGCCGCAGCGGGA (double strand) [ligN upstream EMSA fragment]
binding: no binding
